# From patent publication US20240110004A1 (Northwestern University, priority 2022, published 2024)
# Where no end group is shown, it is not given here.
# Test system: WT mice
# Experiment: P1 treatment of WT littermates in the efficacy study
# Type: in vivo, mouse
# Source text: FIG. 31A-31F: For each of FIG. 31A-31F, data is shown reflecting the results of 3 separate studies (i.e., “Batch 1+2+3”) conducted under identical conditions; “veh” refers to the vehicle saline control. For each of FIG. 31A-31C at week 6, WT: n=15; WT+P1: n=15; R62 veh: n=22; R62+HV3-TAT: n=32; and R62+P1: n=16. For each of FIG. 31D-31F at week 6, WT: n=15; WT+P1: n=15; R62 veh: n=17; R62+HV3-TAT: n=30; and R62+P1: n=13. FIG. 31A depicts the average percent of body weight gain for mice subjected to each treatment. From top to bottom, the week 13 data points correspond to: WT+P1 (˜43%); WT (˜39%); R62+P1 (˜1%); R62+HV3-TAT (˜ 4%); and R62 (˜-9%). […]
# In vivo Efficacy Methods—Behavioral Analysis: All experiments in animals were conducted in accordance with protocols approved by the Institutional Animal Care and Use Committee of Northwestern University and were performed based on the National Institutes of Health Guide for the Care and Use of Laboratory Animals. […] Accordingly, hindlimb clasping was assessed with the tail suspension test weekly from the ages 7 to 13 weeks in R6/2 mice and WT littermates. Mice were suspended by the tail for 60 sec and the latency for the hindlimbs or all four paws to clasp was recorded using the following score system: clasping over 10 sec, score 3; 5-10 sec, score 2; 0-5 sec, score 1; 0 sec, score 0. […]
substance,measurement,setting,value
"P1: PLP homopolymer having peptide side chains of SEQ ID: 1 (HVLVMSATRR), made by ROMP of norbornene peptide monomer M1 (also: side chains of polynorbornene homopolymer (PLP, ROMP of norbornene peptide monomer))",survival rate,WT mice,100%
same,"effects on motor ability, body weight, or neuropathology","mouse, in vivo",no significant effects
